Experimental findings from publication PMC10350043 are described below.

Usually Kd stands for the concentration at which binding is half-saturated. Read a low Kd as tighter binding.

Where no end group is shown, it is not given here. QXL520 = dark acceptor

Assay in all cases: FRET or BRET
Background: BRET reads energy transfer from a luciferase to a nearby fluorophore.

Test [1] has as its target RyR2 in cardiac SR membranes decorated with D-49-FKBP (porcine (endogenous in porcine heart) | human).
For test [2], the target named is RyR2 in cardiac SR membranes decorated with D-32-FKBP (porcine (endogenous in porcine heart) | human).
The target in test [3] is RyR2 in cardiac SR membranes decorated with D-85-FKBP (porcine (endogenous in porcine heart) | human).

Take QXL520-GFCPDHKAAMVLFLDRVYGIEVQDFLLHLLEVGFLP [acceptor-labeled DPc10 (QXL520 at the N-terminus)]: the dissociation constant Kd in test [1] was 9.9 µM; in test [2], 13.1 µM; in test [3] it was 10.4 µM.
